Source: US20220348617A1

Assays:
[1] = target: Notch1 EGF domains 6-13 (human) (UniProt P46531); assay: SPR; N-EGF3; settings: ligand
[2] = target: Notch2 EGF domains 6-13 (human) (UniProt Q04721); assay: SPR; N-EGF3; settings: ligand
[3] = target: Notch 3 EGF domains 5-12 (human) (UniProt Q9UM47); assay: SPR; N-EGF3; settings: ligand
[4] = target: Notch1 EGF domains 6-13 (human) (UniProt P46531); assay: SPR; settings: ligand
[5] = target: Notch2 EGF domains 6-13 (human) (UniProt Q04721); assay: SPR; settings: ligand
[6] = target: Notch 3 EGF domains 5-12 (human) (UniProt Q9UM47); assay: SPR; settings: ligand
[7] = target: Notch1 on the fluorescent Notch1 reporter cell line (CHO^N1); assay: cell-based or functional assay

Notch 3 EGF domains 5-12 (human), sequence (Q9UM47 197-505): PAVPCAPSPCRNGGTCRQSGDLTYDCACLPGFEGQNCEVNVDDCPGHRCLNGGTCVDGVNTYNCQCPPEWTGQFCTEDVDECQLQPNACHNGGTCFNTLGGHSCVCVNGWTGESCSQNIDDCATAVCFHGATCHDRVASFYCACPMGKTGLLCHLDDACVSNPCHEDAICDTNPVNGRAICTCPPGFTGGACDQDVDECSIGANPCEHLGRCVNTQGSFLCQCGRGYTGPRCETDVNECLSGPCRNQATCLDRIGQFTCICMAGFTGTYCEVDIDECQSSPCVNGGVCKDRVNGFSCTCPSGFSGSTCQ
Notch2 EGF domains 6-13 (human), sequence (Q04721 221-530): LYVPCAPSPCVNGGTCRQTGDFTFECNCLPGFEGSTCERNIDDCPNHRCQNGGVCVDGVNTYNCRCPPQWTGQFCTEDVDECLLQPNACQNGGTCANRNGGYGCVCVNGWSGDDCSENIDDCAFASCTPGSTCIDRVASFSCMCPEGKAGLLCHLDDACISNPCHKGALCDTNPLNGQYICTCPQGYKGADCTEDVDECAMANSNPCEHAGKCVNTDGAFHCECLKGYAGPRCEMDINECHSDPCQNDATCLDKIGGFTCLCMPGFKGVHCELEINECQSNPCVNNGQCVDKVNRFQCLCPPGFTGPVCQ
Notch1 EGF domains 6-13 (human), sequence (P46531 218-526): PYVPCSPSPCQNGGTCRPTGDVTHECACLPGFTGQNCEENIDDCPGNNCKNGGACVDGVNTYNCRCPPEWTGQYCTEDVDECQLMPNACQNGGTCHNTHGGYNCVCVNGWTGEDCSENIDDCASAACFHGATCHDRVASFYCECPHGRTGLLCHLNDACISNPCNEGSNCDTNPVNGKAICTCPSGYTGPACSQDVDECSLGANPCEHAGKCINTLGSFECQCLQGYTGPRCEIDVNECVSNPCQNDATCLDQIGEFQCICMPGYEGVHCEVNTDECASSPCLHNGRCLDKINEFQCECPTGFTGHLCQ

| Kd [1] [nM] | Kd [2] [nM] | Kd [3] [nM] | Kd [4] [nM] | Kd [5] [nM] | Kd [6] [nM] | Notch1 activation (fluorescent Notch1 reporter cells, co-culture) [7] [%] | Substance |
| --- | --- | --- | --- | --- | --- | --- | --- |
| 103 | 244 | 122 | 450 | 750 | 470 |  | E12 human DLL4 (from UniProt Q9NR61 27-322) |
|  |  |  | 2 | 7.4 | 4.7 |  | N3a.5_E12 human DLL4 (from UniProt Q9NR61 27-322) |
|  |  |  | 4.2 | 15.3 | 7.2 |  | N3a.8_E12 human DLL4 (from UniProt Q9NR61 27-322) |
|  |  |  |  |  |  | 100 | wild-type human DLL4 expressed on 293T cells (from UniProt Q9NR61 27-685) (ligand) |
